Test results taken from article PMC2888147.

Molecular target: His-tagged KCNE1 C-terminus (E1C) (human) (UniProt P15382)
Assay: SEC

stoichiometry N: 2
Substance: His-tagged KCNE1 C-terminus (E1C) (from UniProt P15382 67-129) (domain or fragment)
